Experimental data as given in patent US9228015B2, “Nogo receptor antagonists and methods of increasing neurite outgrowth” (Biogen Idec MA Inc., priority 2006, dated 2016).

Tests used:
OM-gp + sNogoR344-Fc = molecular target: T1, OM-gp + sNogoR344-Fc (Rattus norvegicus, UniProt Q99M75, A303T/C287S/C43R/E284G/T53A); experiment: ELISA: inhibition of OM-gp binding to sNogoR344-Fc
T1 construct: amino acid residues 26-344 of rat Nogo receptor-1; made in house; CHO (DG44) is described only for sNogoR310-Fc
T1 sequence (Q99M75 26-344 C43R/T53A/E284G/C287S/A303T): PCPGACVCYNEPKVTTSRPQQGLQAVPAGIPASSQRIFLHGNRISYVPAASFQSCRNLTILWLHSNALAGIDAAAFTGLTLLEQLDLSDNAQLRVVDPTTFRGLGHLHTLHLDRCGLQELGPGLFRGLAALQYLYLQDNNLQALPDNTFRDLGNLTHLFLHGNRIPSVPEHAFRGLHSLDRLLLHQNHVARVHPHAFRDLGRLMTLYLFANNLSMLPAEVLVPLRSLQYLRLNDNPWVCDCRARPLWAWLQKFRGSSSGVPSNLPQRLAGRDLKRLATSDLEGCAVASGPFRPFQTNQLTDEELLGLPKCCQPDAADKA
Protocol: 0.5 μg of a soluble Nogo receptor-1 fusion protein comprising amino acid residues 26-344 of rat Nogo receptor-1 and the hinge and Fc region of the rat IgG1 molecule (sNogoR344-Fc) produced as described below was immobilized on […] of protein-A- or wheatgerm agglutinin-conjugated SPA beads (Amersham Pharmacia Biotech) for 2 hours at 25° C. SPA beads coupled with Fc-sNogoR-1, anti-Nogo receptor-1 mAb and 1 μl ^125I-Nogo66 (Amersham, 2000 Ci/mmol, 1 nM) in […] of the HEPES-buffered incubation medium (10 mM HEPES, pH 7.4, 0.1% bovine serum albumin, 0.1% ovalbumin, 2 mM MgCl2, 2 mM CaCl2 and protease inhibitors) was added to each sample well. After 16 hours, radioactivity was measured in quadruplicate samples using a TopCount® (Packard). IC50 values were calculated from a curve-fit analysis (FIG. 3) (PRISM, GraphPad Software, NJ). In some experiments, we also used AP-ligand conjugates (e.g. AP-Nogo66) and detected binding by monitoring alkaline phosphatase activity. We also assayed the ability of the mAbs to block binding of the ligands MAG-Fc and AP-OM-gp to Nogo receptor-1.
Monoclonal antibodies 7E11, 5B10, 1H2, 3G5 and 2F7 all inhibited binding of Nogo66, MAG and OM-gp to sNogoR344-Fc. The calculated IC50 for Nogo66 for 7E11 and 1H2 were 400 nM and 60 nM, respectively. The data from ELISAs monitoring mAb-mediated inhibition of binding of the three ligands to Nogo receptor-1 are summarized in Table 6.
The percent displacement is shown at 30 nM antibody and the EC50 for certain mAbs determined from curve-fit analysis as described. “-” indicates no detectable activity and “ND” indicates not determined.
We also performed ELISA binding assays using the Fab-phage 141)5.

[1] = tested on: DRG neurons, myelin-mediated inhibition of neurite outgrowth; experiment: Neurite outgrowth assay, P3-4 rat DRG neurons on CNS myelin (Example 5); format: cell-based; details: mAb added after plating
Protocol: To test the ability of the monoclonal and Fab-phage antibodies produced above to lessen the inhibitory effect of CNS myelin on neurons, Lab-Tek® culture slides (4 wells) were coated with 0.1 mg/ml poly-D-lysine (Sigma®). CNS myelin or PBS was spotted as 3 μl drops. Fluorescent microspheres (Polysciences) were added to the myelin/PBS to allow later identification of the drops (Grandpre et al., Nature 403:439-444 (2000)). Lab-Tek® slides were then rinsed and coated with 10 μg/ml laminin (Gibco™). Dorsal root ganglions (DRG's) from P3-4 Sprague Dawley rat pups were dissociated with 1 mg/ml collagenase type 1 (Worthington), triturated with fire-polished Pasteur pipettes pre-plated to enrich in neuronal cells and finally plated at 23,000 cells/well on the pre-coated Lab-Tek® culture slides. The culture medium was F12 containing 5% heat inactivated donor horse serum, 5% heat inactivated fetal bovine serum and 50 ng/ml mNGF and incubated at 37° C. and 5% CO2 for 6 hours. Fifteen […] of mAb 7E11 was added immediately after plating.
Slides were fixed for 20 minutes with 4% paraformaldehyde containing 20% sucrose and stained for the neuronal marker anti beta-III-tubulin (Covance TUJ1) diluted 1:500. […] 5× digital images were acquired with OpenLab™ software and analysed by using the MetaMorph® software for quantification of neurite outgrowth.

[2] = molecular target: T2, cells expressing human Nogo receptor-1 (Homo sapiens, UniProt Q9BZR6); experiment: Immunohistochemistry on fixed and live COS-7 or 293 cells expressing human Nogo receptor-1; format: cell-based; details: immunohistochemical staining
T2 construct: expressed in transfected cells; host or cells: COS-7 or 293 cells
T2 sequence (Q9BZR6 27-447): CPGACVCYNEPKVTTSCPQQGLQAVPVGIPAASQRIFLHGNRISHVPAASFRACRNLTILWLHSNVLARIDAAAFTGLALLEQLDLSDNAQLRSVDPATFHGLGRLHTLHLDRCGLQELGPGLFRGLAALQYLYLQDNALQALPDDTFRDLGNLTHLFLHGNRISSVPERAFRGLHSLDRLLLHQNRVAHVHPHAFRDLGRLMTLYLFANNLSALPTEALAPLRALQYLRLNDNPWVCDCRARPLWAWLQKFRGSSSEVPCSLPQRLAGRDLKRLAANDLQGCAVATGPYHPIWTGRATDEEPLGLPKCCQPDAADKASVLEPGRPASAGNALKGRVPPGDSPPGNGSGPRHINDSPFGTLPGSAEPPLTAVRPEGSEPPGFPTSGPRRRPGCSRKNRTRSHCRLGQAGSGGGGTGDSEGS
Protocol: To further characterize the binding properties of anti-Nogo receptor-1 mAbs produced as described in Example 1, we compared binding to both fixed and live COS-7 or 293 cells expressing rat or human Nogo receptor-1.
Nogo receptor-1 transfected and non-transfected cells were plated in 8-well Lab-Tek™ culture slides, fixed with 4% paraformaldehyde for 15 minutes, blocked with 10% normal goat serum, 0.1% Triton X-100 in PBS for 1 hour. Mab 7E11 was added at 15 μg/ml and 1.5 μg/ml in blocking solution and incubated for 2 hours at room temperature; Alexa®-conjugated secondary antibody anti-mouse (Molecular Probes) was incubated at a 1:300 dilution in blocking solution for 1 hour; DAPI was added at 5 μg/ml to the secondary antibody to label all nuclei.
Transfected and non-transfected cells were plated in 8 well Lab-Tek™ culture slides, blocked with FACS buffer (containing 4% donor horse serum) for 30 minutes at 4° C., incubated with 7E11 at 15 μg/ml and 1.5 μg/ml in FACS buffer for 1 hour at 4° C., rinsed and incubated with secondary antibody anti-mouse-Alexa® (1:300 in FACS buffer) for 30 minutes at 4° C.

B1: 7E11: murine monoclonal anti-Nogo receptor-1 antibody, immunogen rat Nogo receptor-1 residues 110-125, IgG1 kappa, ATCC PTA-4587 (antibody, V domains shown)
VH: VQLQESGAELVMPGASVKMSCKASGYTFTDYWMHWVKQRPGQGLEWIGAIDPSDSYSSYNQNFKGKATLTVDGSSSTAYMQLSSLTSEDSAVYYCARRITEAGAWFAYWGQGTTVT
VL: MKLPVRLLVLMFWIPASSSDVVMTQTPLSLPVSLGDQASISCRSSQSLVHSNGNTYLHWYLQKPGQSPKLLIYKVSNRFSGVPDRFSGSGSGTDFTLKISRVDAEDLGVYFCSQSTHVPFTFGGGTKLEIKRADAAPTVSISHH
modifications: 7E11 heavy chain; 7E11 light chain
notes: murine monoclonal anti-Nogo receptor-1 antibody, immunogen rat Nogo receptor-1 residues 110-125, IgG1 kappa, ATCC PTA-4587
- inhibition of binding of OM-gp to sNogoR344-Fc (OM-gp + sNogoR344-Fc): inhibited
- EC50 (OM-gp + sNogoR344-Fc; curve-fit analysis): 150 nM
- protection of DRG neurons from myelin-mediated inhibition of neurite outgrowth [1]: protected
- binding to fixed and live cells expressing human Nogo receptor-1 [2]: bound
